Measured values as given in the supplement of paper PMC9170038.

Test system: K4 kissing-loop RNA reporter
Experiment: apparent KD of K4 kissing-loop reporter; higher = weaker reporter binding
Details: Eterna round: R107
Experimental: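 RNA-MaP round R107: designed RNA switches with theophylline, tryptophan, arginine or FMN aptamers are transcribed on-chip within common flanks. They are titrated with a labelled K4 kissing-loop RNA reporter in RNA-MaP buffer (100 mM Tris pH 7.5, 80 mM KCl, 4 mM MgCl2), without ligand or with the indicated ligand. Median apparent KD per design.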

[1] = input ligand: theophylline 20 uM
[2] = input ligand: tryptophan 2.4 mM
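Note: bound reporter read as fluorescence of individual clusters on recovered sequencing chips by microscopy, with normalized cluster intensities fitted with a binding model.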

Row | Sequence | apparent KD of K4 kissing-loop reporter (input ligand: FMN 200 uM) | apparent KD of K4 kissing-loop reporter (input ligand: arginine 13.2 mM) | apparent KD of K4 kissing-loop reporter (input ligand: none) | apparent KD of K4 kissing-loop reporter [1] | apparent KD of K4 kissing-loop reporter [2]
1 | GGCACUUUUGGUAGAAACCAUCUACCUCUAUAGGAUAUGCCGAAAGGCAGAAGGAUAGACCUACAGAGUGAUGUUCUGCGUGCCU | 692 nM | 406 nM | 719 nM | 460 nM | 503 nM
2 | GGCAUGGUGGCAGGAUAUCCUAAUAGAGUGAUGUUCUAGCCCUCGUAGGCGAAAGCCUACGAGGGCGGAGAAGGGCCACCAUGCC | 263 nM | 384 nM | 697 nM | 835 nM | 431 nM
3 | GGGAGUAGUGCGGCCGCCACUGUGAAAGUAGAAGAAUAUAGUGAUGUUAUAUAGGAACAAAAGAAUAGGACCGGGCAUUAGAUUU [SSTRyptB.X] | 311 nM | 260 nM | 304 nM | 299 nM | 198 nM
4 | GGGAGUAGUGCGGCCGCCACUGUGAGGGAAGAAGAAUAUAGUGAUGUUAUAUAGGAAGGGAAGAAUAGGACCGGGCAUUAGAUUU [SSTRyptB.aB] | 225 nM | 208 nM | 245 nM | 230 nM | 198 nM
5 | GGGCCUGGGCCCGUAAGGGCCUGGGCCCGUUAGGAUAUGACGUGAUUCAGAAGGGAUGGGUGGAGUGAUGUUCCACCCGAGAGGG [#2 Same State - FMN A Attempt #24 (HarryS)] | 111 nM | 97.7 nM | 117 nM | 88.5 nM | 96.7 nM
6 | GGGUCAUGGAACGGAUAAGUGAUGUUUACCCGAGGACCGGUACGGCCGCCACUCGGUCGUUAUUUCCGACGUGCUGGUAAGACUA [theeternabot_exclusion_KL_Trp_A_10] | 336 nM | 253 nM | 378 nM | 348 nM | 475 nM
7 | GGGUUUGCCGGAAGGAGCGCACUAUGGAGUGAUGUUCCAUGACCGCACAGCUUGCGGUCAGUGCAGGUAGGUCGCCGGUAGCGUU [Maedzaus] | 205 nM | 203 nM | 239 nM | 271 nM | 179 nM
8 | GGUAGCAUGGCGGCCGCCACUGUCUACUGAGGCGGAGUGAUGUUCCGGUUUAAAUAACAAGUUCACAGGACCGGGCCAUGCUACC | 382 nM | 400 nM | 462 nM | 471 nM | 141 nM
9 | GGUAGCAUGGCGGCCGCCACUUUUACUGGAUCGGAAACGAUCCAGUAUUGUGUAGUGAUGUUACAAAGGACCGGGCCAUGCUACC | 201 nM | 188 nM | 180 nM | 189 nM | 167 nM
10 | GGUUCCUCAGUGAUGUUGAGGUGACCUCGGCAGGAUAUAGGCAUUACUAGAAGGGCCAAAAGAAUCCUGUGCAGCAACACAGGGA [Usrasoza] | 152 nM | 238 nM | 298 nM | 257 nM | 262 nM
11 | GGUUUAUAGGAGGAUACCAGUACGGAUAAAGUACAUUAAUAGUAGAGUGAUGUUCUAAAGUACCCUUGGCAGCUUAGAUUAAGUU [ExTheophylB.I] | 87.1 nM | 177 nM | 133 nM | 209 nM | 74 nM
